From PMC10163920 (European journal of cell biology, 2022)
Ends that are not written are not given here.

Tests used:
Experiment in all cases: fluorescence polarisation
[1] = biological target: Rabbit skeletal muscle actin (unlabeled actin monomers) (rabbit) (UniProt P68135)
profilin-1 (wild-type) = profilin-1 (wild-type) (UniProt P07737 1-140)
[2] = biological target: profilin-1 H120E (actin-binding impaired control) (UniProt P07737 1-140, H120E)
[3] = biological target: profilin-1 A20T (ALS-associated variant) (UniProt P07737 1-140, A20T)
[4] = biological target: profilin-1 C71G (ALS-associated variant) (UniProt P07737 1-140, C71G)
[5] = biological target: profilin-1 T109M (ALS-associated variant) (UniProt P07737 1-140, T109M)
[6] = biological target: profilin-1 M114T (ALS-associated variant) (UniProt P07737 1-140, M114T)
[7] = biological target: profilin-1 E117G (ALS-associated variant) (UniProt P07737 1-140, E117G)
[8] = biological target: profilin-1 G118V (ALS-associated variant) (UniProt P07737 1-140, G118V)
[9] = biological target: profilin-1 R136W (ALS-associated variant) (UniProt P07737 1-140, R136W)
[10] = biological target: profilin-1 Q139L (ALS-associated variant) (UniProt P07737 1-140, Q139L)
Sequence of profilin-1 Q139L (ALS-associated variant) (P07737 whole entry Q139L): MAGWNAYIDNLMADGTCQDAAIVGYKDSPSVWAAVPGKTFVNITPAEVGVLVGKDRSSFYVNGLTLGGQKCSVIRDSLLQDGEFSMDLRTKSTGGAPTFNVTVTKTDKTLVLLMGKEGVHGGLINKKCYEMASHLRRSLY

Sequence of profilin-1 R136W (ALS-associated variant) (P07737 whole entry R136W): as the sequence (P07737 whole entry Q139L) above, with R136W, L139Q counted along it
Sequence of profilin-1 (wild-type) (from UniProt P07737 1-140) (natural protein; other documents disagree on this pair) (P07737 whole entry): as the sequence (P07737 whole entry Q139L) above, with L139Q counted along it
Sequence of profilin-1 (wild-type) (UniProt P07737 1-140) (P07737 whole entry): as the sequence (P07737 whole entry Q139L) above, with L139Q counted along it
Sequence of profilin-1 T109M (ALS-associated variant) (P07737 whole entry T109M): as the sequence (P07737 whole entry Q139L) above, with T109M, L139Q counted along it
Sequence of profilin-1 E117G (ALS-associated variant) (P07737 whole entry E117G): as the sequence (P07737 whole entry Q139L) above, with E117G, L139Q counted along it
Sequence of profilin-1 M114T (ALS-associated variant) (P07737 whole entry M114T): as the sequence (P07737 whole entry Q139L) above, with M114T, L139Q counted along it
Sequence of profilin-1 A20T (ALS-associated variant) (P07737 whole entry A20T): as the sequence (P07737 whole entry Q139L) above, with A20T, L139Q counted along it
Sequence of profilin-1 H120E (actin-binding impaired control) (P07737 whole entry H120E): as the sequence (P07737 whole entry Q139L) above, with H120E, L139Q counted along it
Sequence of profilin-1 G118V (ALS-associated variant) (P07737 whole entry G118V): as the sequence (P07737 whole entry Q139L) above, with G118V, L139Q counted along it
Sequence of profilin-1 C71G (ALS-associated variant) (P07737 whole entry C71G): as the sequence (P07737 whole entry Q139L) above, with C71G, L139Q counted along it

Kd [1] [nM] | Kd (profilin-1 (wild-type)) [nM] | binding result [2] | Kd [3] [nM] | binding result [4] | binding result [5] | Kd [6] [nM] | binding result [7] | Kd [8] [nM] | binding result [9] | Kd [10] [nM] | Molecule
3720 |  |  |  |  |  |  |  |  |  |  | profilin-1 R88E (actin-binding impaired control) (from UniProt P07737 1-140) (natural protein)
99.6 |  |  |  |  |  |  |  |  |  |  | profilin-1 (wild-type) (from UniProt P07737 1-140) (natural protein; other documents disagree on this pair)
 | 2710 | binds | 1650 | binds | binds | 2040 | binds | 2090 | binds | 3470 | IPPPPPLPGVASIPPPPPLPG (also: FITC, position not given here) [FITC-mDia1-derived poly-L-proline (PLP) peptide]
